Measured values published in the supplement of paper PMC9112550, “Optimization of the antimicrobial peptide Bac7 by deep mutational scanning” (BMC Biology, 2022).

Test system: Escherichia coli TOP10
Test: shrunken log2 fold change of peptide-encoding DNA abundance (4.5 h post-induction vs induction); higher = less antimicrobial activity (less host growth inhibition)
Conditions: time post-induction: 4.5 h; library: site-saturation at positions 5, 18, 19, 20
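Further: peptides expressed intracellularly from a pBAD plasmid library in pooled LB shake-flask culture, induced with 0.3% L-arabinose, DNA abundance read by NGS, three biological replicates, DESeq2 with apeglm shrinkage.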

| Sequence | shrunken log2 fold change |
| --- | --- |
| RRIRFRPPRLPRPRPRPNHLPRP | -1.06 |
| RRIRFRPPRLPRPRPRPNIQPRP | -0.973 |
| RRIRFRPPRLPRPRPRPNISPRP | -0.503 |
| RRIRFRPPRLPRPRPRPNKHPRP | -0.348 |
| RRIRFRPPRLPRPRPRPNLEPRP | -0.257 |
| RRIRFRPPRLPRPRPRPNLHPRP | -0.235 |
| RRIRFRPPRLPRPRPRPNMLPRP | -0.669 |
| RRIRFRPPRLPRPRPRPNNGPRP | -0.151 |
| RRIRFRPPRLPRPRPRPNPEPRP | -0.197 |
| RRIRFRPPRLPRPRPRPNSQPRP | -0.496 |
| RRIRFRPPRLPRPRPRPNVDPRP | -0.0445 |
| RRIRFRPPRLPRPRPRPNVSPRP | -0.0196 |
| RRIRFRPPRLPRPRPRPNVWPRP | 0.0725 |
| RRIRFRPPRLPRPRPRPNWFPRP | 0.0383 |
| RRIRFRPPRLPRPRPRPNWQPRP | 0.0965 |
| RRIRFRPPRLPRPRPRPPAAPRP | 1.32 |
| RRIRFRPPRLPRPRPRPPASPRP | 0.574 |
| RRIRFRPPRLPRPRPRPPCQPRP | 3.46 |
| RRIRFRPPRLPRPRPRPPDQPRP | 0.63 |
| RRIRFRPPRLPRPRPRPPEEPRP | 0.153 |
| RRIRFRPPRLPRPRPRPPFGPRP | -0.00994 |
| RRIRFRPPRLPRPRPRPPHFPRP | 0.341 |
| RRIRFRPPRLPRPRPRPPIWPRP | 0.317 |
| RRIRFRPPRLPRPRPRPPKAPRP | 0.332 |
| RRIRFRPPRLPRPRPRPPLFPRP | 0.273 |

| Sequence | shrunken log2 fold change |
| --- | --- |
| RRIRFRPPRLPRPRPRPPNIPRP | -0.185 |
| RRIRFRPPRLPRPRPRPPPHPRP | 1.37 |
| RRIRFRPPRLPRPRPRPPPYPRP | 0.445 |
| RRIRFRPPRLPRPRPRPPQAPRP | 0.558 |
| RRIRFRPPRLPRPRPRPPQDPRP | 0.303 |
| RRIRFRPPRLPRPRPRPPQQPRP | -0.0751 |
| RRIRFRPPRLPRPRPRPPVKPRP | -0.00563 |
| RRIRFRPPRLPRPRPRPPVSPRP | 0.0761 |
| RRIRFRPPRLPRPRPRPPWSPRP | 0.204 |
| RRIRFRPPRLPRPRPRPPYSPRP | -0.235 |
| RRIRFRPPRLPRPRPRPQACPRP | -0.0456 |
| RRIRFRPPRLPRPRPRPQCDPRP | -0.388 |
| RRIRFRPPRLPRPRPRPQCHPRP | -0.358 |
| RRIRFRPPRLPRPRPRPQCMPRP | 0.000372 |
| RRIRFRPPRLPRPRPRPQEQPRP | -0.0102 |
| RRIRFRPPRLPRPRPRPQEVPRP | 0.0758 |
| RRIRFRPPRLPRPRPRPQEWPRP | -0.149 |
| RRIRFRPPRLPRPRPRPQFDPRP | -0.286 |
| RRIRFRPPRLPRPRPRPQGIPRP | 0.0254 |
| RRIRFRPPRLPRPRPRPQHMPRP | -0.615 |
| RRIRFRPPRLPRPRPRPQILPRP | -0.713 |
| RRIRFRPPRLPRPRPRPQKFPRP | -0.259 |
| RRIRFRPPRLPRPRPRPQKGPRP | 0.107 |
| RRIRFRPPRLPRPRPRPQKSPRP | -0.285 |
| RRIRFRPPRLPRPRPRPQKYPRP | -0.864 |

| Sequence | shrunken log2 fold change |
| --- | --- |
| RRIRFRPPRLPRPRPRPQLMPRP | -0.32 |
| RRIRFRPPRLPRPRPRPQMGPRP | -0.209 |
| RRIRFRPPRLPRPRPRPQMIPRP | -0.484 |
| RRIRFRPPRLPRPRPRPQMKPRP | -0.41 |
| RRIRFRPPRLPRPRPRPQNSPRP | -0.568 |
| RRIRFRPPRLPRPRPRPQPRPRP | 0.541 |
| RRIRFRPPRLPRPRPRPQRNPRP | -0.323 |
| RRIRFRPPRLPRPRPRPQRWPRP | 0.427 |
| RRIRFRPPRLPRPRPRPQSAPRP | 0.0283 |
| RRIRFRPPRLPRPRPRPQSSPRP | 0.0748 |
| RRIRFRPPRLPRPRPRPQTAPRP | -0.337 |
| RRIRFRPPRLPRPRPRPQTLPRP | -0.399 |
| RRIRFRPPRLPRPRPRPQVCPRP | -0.00807 |
| RRIRFRPPRLPRPRPRPRADPRP | 0.223 |
| RRIRFRPPRLPRPRPRPRAIPRP | 0.0543 |
| RRIRFRPPRLPRPRPRPRAYPRP | -0.23 |
| RRIRFRPPRLPRPRPRPRCQPRP | 0.24 |
| RRIRFRPPRLPRPRPRPRDAPRP | 0.541 |
| RRIRFRPPRLPRPRPRPRDSPRP | -0.051 |
| RRIRFRPPRLPRPRPRPREFPRP | 0.0793 |
| RRIRFRPPRLPRPRPRPREKPRP | -0.0136 |
| RRIRFRPPRLPRPRPRPRETPRP | 0.0137 |
| RRIRFRPPRLPRPRPRPREWPRP | 0.112 |
| RRIRFRPPRLPRPRPRPRGFPRP | 0.27 |
| RRIRFRPPRLPRPRPRPRGIPRP | -0.123 |

| Sequence | shrunken log2 fold change |
| --- | --- |
| RRIRFRPPRLPRPRPRPRHVPRP | -0.0276 |
| RRIRFRPPRLPRPRPRPRIEPRP | -0.0896 |
| RRIRFRPPRLPRPRPRPRKMPRP | 0.0208 |
| RRIRFRPPRLPRPRPRPRLLPRP | 0.342 |
| RRIRFRPPRLPRPRPRPRLNPRP | -0.228 |
| RRIRFRPPRLPRPRPRPRMDPRP | -0.0641 |
| RRIRFRPPRLPRPRPRPRMLPRP | 3.84e-05 |
| RRIRFRPPRLPRPRPRPRNAPRP | 0.347 |
| RRIRFRPPRLPRPRPRPRNLPRP | -0.016 |
| RRIRFRPPRLPRPRPRPRRAPRP | 0.678 |
| RRIRFRPPRLPRPRPRPRRDPRP | 0.798 |
| RRIRFRPPRLPRPRPRPRRTPRP | 0.375 |
| RRIRFRPPRLPRPRPRPRSFPRP | -0.138 |
| RRIRFRPPRLPRPRPRPRSWPRP | 0.135 |
| RRIRFRPPRLPRPRPRPRTNPRP | -0.179 |
| RRIRFRPPRLPRPRPRPRVPPRP | 0.291 |
| RRIRFRPPRLPRPRPRPRVSPRP | -0.102 |
| RRIRFRPPRLPRPRPRPRWKPRP | 0.217 |
| RRIRFRPPRLPRPRPRPSARPRP | 0.0874 |
| RRIRFRPPRLPRPRPRPSCIPRP | -0.603 |
| RRIRFRPPRLPRPRPRPSCWPRP | 0.144 |
| RRIRFRPPRLPRPRPRPSDGPRP | -0.391 |
| RRIRFRPPRLPRPRPRPSDIPRP | -0.385 |
| RRIRFRPPRLPRPRPRPSDPPRP | -0.106 |
| RRIRFRPPRLPRPRPRPSEKPRP | 0.0358 |

| Sequence | shrunken log2 fold change |
| --- | --- |
| RRIRFRPPRLPRPRPRPSFHPRP | -0.694 |
| RRIRFRPPRLPRPRPRPSGSPRP | -0.192 |
| RRIRFRPPRLPRPRPRPSHMPRP | -0.255 |
| RRIRFRPPRLPRPRPRPSICPRP | -0.636 |
| RRIRFRPPRLPRPRPRPSLIPRP | -1.06 |
| RRIRFRPPRLPRPRPRPSMGPRP | -0.648 |
| RRIRFRPPRLPRPRPRPSMSPRP | -0.394 |
| RRIRFRPPRLPRPRPRPSNPPRP | -0.674 |
| RRIRFRPPRLPRPRPRPSNSPRP | -0.723 |
| RRIRFRPPRLPRPRPRPSPSPRP | 0.12 |
| RRIRFRPPRLPRPRPRPSPTPRP | 0.313 |
| RRIRFRPPRLPRPRPRPSRIPRP | -0.119 |
| RRIRFRPPRLPRPRPRPSRPPRP | 0.616 |
| RRIRFRPPRLPRPRPRPSTMPRP | -0.391 |
| RRIRFRPPRLPRPRPRPSTQPRP | -0.503 |
| RRIRFRPPRLPRPRPRPSTRPRP | -0.013 |
| RRIRFRPPRLPRPRPRPSVEPRP | -0.18 |
| RRIRFRPPRLPRPRPRPSWYPRP | -0.401 |
| RRIRFRPPRLPRPRPRPSYEPRP | 1.66 |
| RRIRFRPPRLPRPRPRPTDPPRP | -0.0408 |
| RRIRFRPPRLPRPRPRPTEHPRP | -0.316 |
| RRIRFRPPRLPRPRPRPTITPRP | -0.513 |
| RRIRFRPPRLPRPRPRPTKQPRP | 0.0621 |
| RRIRFRPPRLPRPRPRPTLHPRP | -0.0536 |
| RRIRFRPPRLPRPRPRPTLNPRP | -0.254 |

| Sequence | shrunken log2 fold change |
| --- | --- |
| RRIRFRPPRLPRPRPRPTNNPRP | -0.644 |
| RRIRFRPPRLPRPRPRPTQCPRP | 0.322 |
| RRIRFRPPRLPRPRPRPTQHPRP | 0.168 |
| RRIRFRPPRLPRPRPRPTQMPRP | 0.149 |
| RRIRFRPPRLPRPRPRPTRAPRP | 0.825 |
| RRIRFRPPRLPRPRPRPTRIPRP | 0.0179 |
| RRIRFRPPRLPRPRPRPTRNPRP | 0.184 |
| RRIRFRPPRLPRPRPRPTSCPRP | -0.0685 |
| RRIRFRPPRLPRPRPRPTSHPRP | -0.193 |
| RRIRFRPPRLPRPRPRPTVPPRP | 0.341 |
| RRIRFRPPRLPRPRPRPTWHPRP | -0.0992 |
| RRIRFRPPRLPRPRPRPTWMPRP | 0.611 |
| RRIRFRPPRLPRPRPRPTWWPRP | 0.494 |
| RRIRFRPPRLPRPRPRPTWYPRP | -0.0222 |
| RRIRFRPPRLPRPRPRPVACPRP | -0.347 |
| RRIRFRPPRLPRPRPRPVCIPRP | -0.541 |
| RRIRFRPPRLPRPRPRPVCQPRP | 0.109 |
| RRIRFRPPRLPRPRPRPVEKPRP | 0.149 |
| RRIRFRPPRLPRPRPRPVEMPRP | -0.327 |
| RRIRFRPPRLPRPRPRPVEPPRP | -0.228 |
| RRIRFRPPRLPRPRPRPVEVPRP | -1.6 |
| RRIRFRPPRLPRPRPRPVEYPRP | -0.109 |
| RRIRFRPPRLPRPRPRPVFLPRP | -0.327 |
| RRIRFRPPRLPRPRPRPVGFPRP | -0.0508 |
| RRIRFRPPRLPRPRPRPVGRPRP | 0.382 |
